Experimental data as given in patent US20260258111A1.

Molecular target: WT
Assay: flow cytometry of CHO cells displaying the WT truncated domain, stained with labelled TRAIL; panel stands above the 2 ug/mL panel, its own TRAIL concentration is not labelled

Chain of WT (chain, as listed by the source limits assumed, form in doubt): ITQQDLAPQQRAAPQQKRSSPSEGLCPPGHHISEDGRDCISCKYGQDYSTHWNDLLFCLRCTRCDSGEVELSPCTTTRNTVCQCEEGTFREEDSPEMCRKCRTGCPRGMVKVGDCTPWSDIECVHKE

APC-A, SSC-A subset (percent of cells in the gate): 3.84%
Substance: APC-TRAIL (from UniProt P50591 114-281) (ligand)
